Measured values published in the DeepSol protein solubility set.

Test: soluble on expression in E. coli; label from the status in PepcDB or PDB records

Row | Sequence | soluble on expression in E. coli
1 | MAGLIPQSFIDDLLNRTDIVEVVSSRIQLKKTGKNYSACCPFHKEKTPSFTVSPDKQFYYCFGCGAGGNALGFVMDHDQLEFPQAVEELAKRAGMDVPREERGGRGHTPRQPTDSPLYPLLSAAAEFYKQALKSHPARKAAVNYLKGRGLTGEIARDFGLGFAPPGWDNLLKHLGGDNLQLKAMLDAGLLVENSDTGKRYDRFRDRVMFPIRDSRGRIIAFGGRVLGDDKPKYLNSPETPVFHKGQELYGLYEARQKNRDLDEIMVVEGYMDVIALAQQGIRNAVATLGTATSEEHIKRLFRLVPSILFCFDGDQAGRKAAWRALESVLPNLQDGKRVRFLFLPEGEDPDSLVRAEGEDAFRARITQQAQPLAEYFFQQLMLEADPATLEGKAHLATLAAPLLEKIPGNNLRLLMRQRLSEITGLSGENIGQLAHHSPPPSSMDHGASGVLDGDDYFAASAYYENEPSHAPFDAAPGYVEAQPRKSWNKDKKPWDGKKWDGKKKWDKGGRGDFKAPQRTPVSVESTTLNALRTLLHHPQLALKVDDAGTLAREQDTYAQLLVSLLEALQKNPRQSSMQLIARWHGTPQGRLLQALGEKEWLIVQENLEKQFFDTITKLSESQRFGEREERLRSVMQKSYSELTDEEKALLREHYSVAASSP | not soluble
2 | MAGQIETRQFRTLFISDVHLGSKAAKTDFLLDFLKYHEAETIIMVGDIVDGWRLRRSWYWPQGCNDVVQKLLRKARKGTRIVYIPGNHDEFLREFPGMHFGGIEVAERMIHEAADGKKYLVIHGDEFDVVVRNARLLAYLGDWAYDAAIAINIAIAAVRRRIGLPYWSFSAWAKLQVKHAVNFIGEFQRVVADEARRNNVDGVICGHIHHAIMEDMDGIRYINTGDWVESCTAIAENADGSFELITWMQTSEATAEHASDEMEPVNIPGLIGKHAA | not soluble
3 | MAGTGHTPEEALALLKRGAEEIVPEEELLAKLKEGRPLTVKLGADPTRPDLHLGHAVVLRKMRQFQELGHKVVLIIGDFTGMIGDPSGRSKTRPPLTLEETRENAKTYVAQAGKILRQEPHLFELRYNSEWLEGLTFKEVVRLTSLMTVAQMLEREDFKKRYEAGIPISLHELLYPFAQAYDSVAIRADVEMGGTDQRFNLLVGREVQRAYGQSPQVCFLMPLLVGLDGREKMSKSLDNYIGLTEPPEAMFKKLMRVPDPLLPSYFRLLTDLEEEEIEALLKAGPVPAHRVLARLLTAAYALPQIPPRIDRAFYESLGYAWEAFGRDKEAGPEEVRRAEARYDEVAKGGIPEEIPEVTIPASELKEGRIWVARLFTLAGLTPSNAEARRLIQNRGLRLDGEVLTDPMLQVDLSRPRILQRGKDRFVRVRLSD | soluble
4 | MAGWVNPSFDREKLRSVIDSAERVLSERDKAREEAIRLARDVVRYSGWAVTAVHKGSLEEAEGHLARAEEAAGMLRSILEPYPDLMTAGFANNAFSEYVEARLFIDIITGRGLSSPDELRVPIVPYIQGLGDLVGELRRLSLELVRRGEFRKAWSLLDIMEAIYLELRSLDYPEALLPGVRHKADVARRLVDDTKAMLADLESRSQLEYRLKEVLKRLEA | soluble
5 | MAHAPARCPSARGSGDGEMGKPRNVALITGITGQDGSYLAEFLLEKGYEVHGIVRRSSSFNTGRIEHLYKNPQAHIEGNMKLHYGDLTDSTCLVKIINEVKPTEIYNLGAQSHVKISFDLAEYTADVDGVGTLRLLDAVKTCGLINSVKFYQASTSELYGKVQEIPQKETTPFYPRSPYGAAKLYAYWIVVNFREAYNLFAVNGILFNHESPRRGANFVTRKISRSVAKIYLGQLECFSLGNLDAKRDWGHAKDYVEAMWLMLQNDEPEDFVIATGEVHSVREFVEKSFLHIGKTIVWEGKNENEVGRCKETGKVHVTVDLKYYRPTEVDFLQGDCTKAKQKLNWKPRVAFDELVREMVHADVELMRTNPNA | not soluble
6 | MAHELQLIKQSSGILIPATPETSEILQSKIKLGAVLVAEFRQVRNPAFHRRFFALLNLGFEYWEPTGGAISANERKLVNGYAKFLAAYGGNESALLDAAEQYLEQIANRRVTNGISLCKSFDAYRAWVTVEAGHYDAIQLPDGTLRKHPRSIAFSSMDEVEFQQLYKSALDVLWRWILSRTFRTQREAENAAAQLMSWAG | not soluble
7 | MAHHHHHHMACDDSTKRNAAAVNRLLQKTRAATAPNSQWLNSITRREDGTLSNELHLSNQQRLACEMGVFPKGHFGDVEIEEENPQRSCHALAQRRARHEWKTDEEAKRRLQIGRGEVCNKRELRAAARREAAILRYEMTLPRRRVVGHLSHLMPAQADASLAVPTEGAADALVEKGCGRWVLHNSYRQQLLHGEPVMTRIMRGEFYETKPPPQRKKKVWAAGKRHVRMTSEVNRLMNTGGWCR | not soluble
8 | MAHHHHHHMAIVGDSLNKRRNYTVCGLVSNPLFQKCAEVAQYVAEEYSDEFYVDIFREMPCEFYSRREQLLNSKKIEDGGMEVIVLVGADGHTGPTNGEGEAMSGDDFLNMMQKATCFRVLNIPPERPDSYENMAHLSWKNYLRERGNTYCWMEISIGEMVHGRVTFELYSRVVPHTCSNFWHLCKGDLSRDADEGEEQVPILSYKNSTFFRTLHGAWVMGGDISGGNGRGGYSIYGRYFPNESYAIPHDRVGVLGMCNDGGDTNASSFYITMKAMQWMNGRYVAFGRVVDGLEVVHAIHAVDVKHNQCPKKVITISDCGVIDLTE | not soluble
9 | MAHHHHHHMASLMGFLTVSKISEPPKASVAQEAFDYIYERIAAPAEVDVERFLEIGHFESLATATCLSLEDLSLYLFAFAVDESAKRIYKISEKHFVAWMAGLISKLPRNAAPPTRENAYAPLFAAAHDAIVDLNNTIRSNEEKRSKFYQFLYNWCLKGNDASDRVDSAKELWSCFFSASPVSLTVEEARRKFTAYVCFPRINQWLDFITMLGEKATESKSGRVAVEQSGVSFDTWTQLLLFARFDNYDAYDDEDSWPVTMDDFVVYVRKLEESKKV | not soluble
10 | MAHHHHHHMASSSDADGKEVGSSGEGNRATGGKWRRPSLAQQRARRAQLPPAFDVVHWNDEDISRGHLLRVLHRDTFVVLDYHRQARMLTEEGNKAERVVSVMLPAVYTARFLAVLEGRSEKVEVHSRYTNATFTPNPAAPYTFTLKCTSTRPAQQKQQVAGEEGDETFEWTVEFDVAESLMLQRFLTQALHYNTGFARTSV | soluble
11 | MAHHHHHHMATAKELGPGGLREDGRPIFIATDHTKFTPSTKQELTDQQKLAWKSFQLWRTTLGIERRDNVYKTLTNSDYTNFRLGTHILGTPYPVIETVPGFFDVFKAVRWYEHAISLAVALGYGYWIRSKASTRYSRMMPMSRTSITMLTFISTDLCFCYRSMYRLTGYLPNEYECFKYGVLEDKDKLQRKKELWEKYANHKREWCRRYDYHVYGIRPGETFSFFSACMIPSWEPRYNTRTDYPPRKNPYFLTSTPLRDTFLESPFTYEIPKDETVPLVRERPELKYLYRGPGRTTPPSDEK | not soluble
12 | MAHHHHHHMDALIGQLENVEPDNILKSAEEFRNDKSDVKVNLSIGVCCDENGQLHIFKSVLEAEKLVQQRYKEKPYMLSNGTKQFSLLTQKLIFGENSKYLKEKKICTVQAIGGTGAICIALQLFKMLHIREICVTNKPYVNHVNMITSNGIKVKYISFFEEKLVNINYDAFLNDLRKLEDGSVLLLQVSCYNPCSTNIEEIYFDEIANIVWKKKHVIVFDIAYQGFGSSNMNDDVSLVKKFEERGISFVVCQSFSKNMSLYGERAGALHIVCKSKEERKIVANNLRVITRKFYSSPTIHTNRIVCQLLEDEKLKSEWISDLRELSERVHKNRVLFFEKMEFYQKKFDLHYDWSVYKKQRGIFSFVPMFSAIYRKLKEHHVYIIDNGRINVSGITARNVDYVAEKVCLSLAEVKRCG | not soluble
13 | MAHHHHHHMDSMPPLSSPCLVEQEARQVPAGCFTRAVYALHSTDNEQTETAALTVRKLIKEEDQGMMRGAASSQIPLKRKGSKTNSAKSKYGKSGKLGRSSVVSWNLKSAPKITKAAGVTSANNNENREYVSPIVWCPVTPLMDNIYRSKWRQPMGRASSQAIDNEKNICIDETNVGENDLCMCKDVEAQFVLRGGERIYTLHYVTPLSMKRRETNEENSMCYGVLPVIRICVNPPVTP | not soluble
14 | MAHHHHHHMDVSRRLAGENHDFRRSTQVPALCTKPQGGKGMRLNVLHEGAVPANDFHSAHLTPYEMDEIKGYSEVYYVGQNCDRKVQAPVEGGHNKGYDDERGDYLIRLRDHIAYRYEVLSTLGSGSFGQVVKAVDHCKNCTVALKIIRNRKRFTAQAKIEVQILSHLKKGDPSGIYGIVQMIDNFTFRSHVCITYELLGCNLYTYLKQRRFKPLPLDVVRKIGAGVLVSLSYMWRENIIHCDLKPENILLRSPNDTAVKVIDLGSSCFENARLFTYIQSRFYRAPEVLLGCPYSRCIDLWSYGCVLCELASGYPIFPGESEQEQMACIMEFLGTPPRDFILRSPRKHEFFEASANYSPKLVPNSKLKIRFPGTKNIAAFLGLPEGDPFVSFVKLFLEWVPDSRATPRRAMKHPWIADEVNELLSKQKRNTAATGEDDSESKFHKALPRLPKIGK | not soluble
15 | MAHHHHHHMDYCEEAYNKLIEFLSENKTEKMMESSLSSALAVALCYNHRIVNMYENMKGRIFLLDISNETYVYTNQYTQLMNIAYNAKRNNIIIDVFSLNCKIQLLEQICNITNGLYIDSSIFFNVNCTDNIEDVLTQTMIFWFLPSNNTRKYFSNTYLNDDTNIAVCSCHNKQVDIAYICSCCLAIYCSEKDEKTNKERTSCFVCKTRFTKALLRNKVVSDLDFSSI | not soluble
16 | MAHHHHHHMEAGARFPAAATPPASAGAAAVQGDAESEPDDERWSLSDGEPEAIPAKNGEPSDADVDAAMAAKGEAAELHGEGKQEEAIAKMGEALAYNPGNAMYWGMRALYHLEFNKPRAALHDANKALELNPQNVRALRVRGTVNRHLGHWEDSLKDLSAAQAIDYDDKTNETLKYVQSRATQRHKRQLARHHAEEEAAARRQEELRRQRQREAEEAAAAAEAQAAPGSMPGGLPRGFPGGMPGGMPGGMPGGMPPGMESVLQDPEIMVAMQDPEVAPKLAQMMQNPMAAMSMMNDPKVGPVMQKIMAKMMGGGGMPGGMGGMGGMGGFQGAGGMPSHRGAADGASGSTRRDDLD | not soluble
17 | MAHHHHHHMEASAPGKVLILGSYLIVESCTPANVGISIGVNARFTTRIVKAEPTTTGASGKTTIHMRSPQFRQSFCFVANTSAPGTVAVKQTEGPGSPFIFNAVLYSVAAAQSLGSSTDGEIWVELLADNDFYSQRNYLESQGKDVNVANLRSLPPHLPLVGAISKTGLGSSAAMTTSIVACLCHHFNADGCSHEYVHRIAQIAHSVTQGKIGSGFDVYTAVYGTCAYRRFPVSRVSMMMMASAQPPSSVEVETLRRCVDMNEVWVPPESFRLPPGVKLVLGDVHQGGSCTPGMVAKIMAWRKSVADTPDNLWEQLRRNNEAYIAALRRMIDEAAAKPDVYAASMAALQQVPSLPLFRADGESMQCIVEASRFAARSRALLRDMGVAAEVKVEPVELTDLLDDTATLPGVFAVGCPGAGGYDAVFALVLGDECAAAVEAFWEHYTKMNVCPLLVREDPSGLLIQPPP | soluble
18 | MAHHHHHHMEDKLDFTKLRDPFDMDEINRKLQEKVADDDPVQKAMPDPMDPKFRAPLRCSACGAVIEHAVRLLRPIIERQSERAARSGGVLPADALPKEYEMVDIFENLCGEVGRLYGLEVEKDKKRPTLRFSKSFGVSRLQGAWMPSFLTSTCEGVLDVEGEEKLAAMILGVARSEAEAGRGKVISMNPDQGIVDKVREMVCTKWEESAKGCDAYGVAIDPRETDNDDGAEEAASDL | not soluble
19 | MAHHHHHHMEDVRPVTSPLTEDTAYTRCLRGAKEAKERGNTAISDKNFKEASFQYKKALLFLSEYIPGDGGFSEDALIDMLARRRGVATPRDLSPGRKSELMDLYVTVMNNLAVADMRLCRFDKGVEHTTKVLNVPGQEKNRKALWRRAECHVQRGHIEEAEKDVDVLAACAEGNGQQSEEVVEQLRMKIKEKKKQLVREERAICKKMFEHGS | soluble
